Molecular target: WT1 peptide … presented by HLA-A0201 (human;)
Experiment: 125I-labeled antibody saturation cell binding; JMN cells

B1: ESK1 wildtype IgG1 (antibody, V domains shown)
VH: QMQLVQSGAEVKEPGESLRISCKGSGYSFTNFWISWVRQMPGKGLEWMGRVDPGYSYSTYSPSFQGHVTISADKSTSTAYLQWNSLKASDTAMYYCARVQYSGYYDWFDPWGQGTLVTVSS
VL: not shown
  Kd: 0.2 nM
